The target in the assay is mouse TNFR1 on L929 cells (mouse). In words: cell-based or functional assay.

The results in this text go back to patent EP1841452B1.

For the substance “anti-TNFR1 antibody AF-425-PB (R&D Systems)”, the ND50, modified L929 cytotoxicity assay without TNF-α (agonism) was 100 pM. The value for “anti-TNFR1 antibody MAB430 (R&D Systems)” was 10000 pM.
